This note sets out measurements from publication PMC7672443, “Structural basis of the XPB helicase–Bax1 nuclease complex interacting with the repair bubble DNA” (Nucleic Acids Research, 2020).

Residue numbers refer to the chain shown, from its start.

In one data set the target is T1, StXPB-Bax1^ΔC (Sulfurisphaera tokodaii, UniProt Q970I2).
T1 construct: gene xpb2
Particulars: phosphate in the ATP-binding site of XPB, DNA-free heterodimer; NH4-citrate pH 7.5, PEG3350.

Data set [1] has as its target T2, StXPB (Sulfurisphaera tokodaii, UniProt Q970I2 2-439).
T2 sequence: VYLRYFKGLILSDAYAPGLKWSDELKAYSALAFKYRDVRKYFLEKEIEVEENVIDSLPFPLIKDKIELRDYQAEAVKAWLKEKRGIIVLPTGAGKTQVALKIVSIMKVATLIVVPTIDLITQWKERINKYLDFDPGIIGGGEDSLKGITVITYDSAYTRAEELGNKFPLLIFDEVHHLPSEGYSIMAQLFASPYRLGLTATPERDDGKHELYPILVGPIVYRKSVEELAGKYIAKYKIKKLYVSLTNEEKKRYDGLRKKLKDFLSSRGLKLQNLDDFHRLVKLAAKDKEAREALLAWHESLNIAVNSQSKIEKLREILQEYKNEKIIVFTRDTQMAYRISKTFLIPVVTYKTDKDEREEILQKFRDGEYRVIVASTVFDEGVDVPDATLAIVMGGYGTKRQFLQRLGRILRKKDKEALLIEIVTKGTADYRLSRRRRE
The experiment in a line: EMSA; stable complex at high protein:DNA ratio; EMSA: 25 mM Tris-Cl pH 7.5, 100 mM NaCl, 5% glycerol, 1 mM DTT, room temperature 40 min; 0.8 uM forked DNA or 0.3 uM bubble DNA; 4% TBE native gel, ethidium bromide. Particulars: protein: recombinant; tags: N-terminal His8 (PreScission; removed); 3 nt mismatch bubble. (Mobility shift assays separate free from complexed probe on a gel.)

The target in data set [2] is T2, StXPB. The data set can be described thus: EMSA; stable complex; EMSA: 25 mM Tris-Cl pH 7.5, 100 mM NaCl, 5% glycerol, 1 mM DTT, room temperature 40 min; 0.8 uM forked DNA or 0.3 uM bubble DNA; 4% TBE native gel, ethidium bromide. The settings on record: protein: recombinant, tags: N-terminal His8 (PreScission; removed).
The target of data set [3] is T2, StXPB. The experiment in a line: EMSA; lower affinity than with Bax1; EMSA: 25 mM Tris-Cl pH 7.5, 100 mM NaCl, 5% glycerol, 1 mM DTT, room temperature 40 min; 0.8 uM forked DNA or 0.3 uM bubble DNA; 4% TBE native gel, ethidium bromide. Particulars: protein: recombinant; tags: N-terminal His8 (PreScission; removed); fork: 22 bp duplex, 10 nt arms.

T1 sequence (Q970I1 2-373 partner, one chain of several): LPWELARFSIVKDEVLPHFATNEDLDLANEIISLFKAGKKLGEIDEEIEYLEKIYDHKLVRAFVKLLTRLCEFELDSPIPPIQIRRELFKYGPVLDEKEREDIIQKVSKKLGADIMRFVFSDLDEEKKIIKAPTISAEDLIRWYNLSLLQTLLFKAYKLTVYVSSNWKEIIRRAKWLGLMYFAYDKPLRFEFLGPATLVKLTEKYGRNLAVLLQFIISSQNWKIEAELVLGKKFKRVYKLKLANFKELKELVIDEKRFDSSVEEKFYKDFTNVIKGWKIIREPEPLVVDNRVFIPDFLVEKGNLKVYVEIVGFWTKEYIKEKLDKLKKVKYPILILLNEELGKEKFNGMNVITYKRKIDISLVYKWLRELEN

Consider `O=P(O)(O)O` [phosphate ion], for which the “X-ray crystallography, 2.96 Å” value at StXPB-Bax1^ΔC was “the ATP binding site of XPB contains a bound phosphate ion”.

B1: bubble-3 DNA (dsDNA)
DNA 1: TAGTCACAGCTGATTTTGCTCTGCTCCATAGT
DNA 2: ACTATGGAGCAGAGCTTTATCAGCTGTGACTA
Consider B1, for which the binding result with StXPB [1] is on record as “binds”.

B2: bubble-4 DNA (dsDNA)
DNA 1: B1 DNA 1 with G18T
DNA 2: B1 DNA 2 with C15T
On to B2, for which the binding result in the data set with StXPB [2] (4 nt mismatch bubble) is on record as “binds”.

B3: forked DNA (dsDNA)
DNA 1: B1 DNA 1 with T16G, T17C
DNA 2: TGATACTTCGAGAGCGCAATCAGCTGTGACTA
Consider B3, for which the binding result in the data set with StXPB [3] was “binds”.

B4: bubble-5 DNA (dsDNA)
DNA 1: B1 DNA 1 with G18T
DNA 2: B1 DNA 2 with C15T, A19T
On to B4, for which the binding result with StXPB [2] (32 nt strands, blunt, internal 5 nt T:T mismatch bubble) is listed as “binds”.
